Results on four substances are retold here after article PMC6299097.

What all share (assay): crystal structure; L1 pentamers (Cys175 to Ser, limited trypsin digestion) at ~5 mg/mL, vapour diffusion at 20 °C
Experiment [1] has as its target H58-33BC chimeric L1 pentamer (Human papillomavirus type 58).
For experiment [2], the target named is H58-33BC-52HI chimeric L1 pentamer (Human papillomavirus type 58).
Experiment [3] has as its target HPV33 L1 pentamer (Human papillomavirus type 33).
Experiment [4] deals with HPV52 L1 pentamer (Human papillomavirus type 52).

As for H58-33BC chimeric L1 pentamer (complex), the stoichiometry N in experiment [1] turned out to be 5.
For “H58-33BC-52HI chimeric L1 pentamer (complex)”, the stoichiometry N in experiment [2] came out at 5.
In turn, HPV33 L1 pentamer (complex) yielded a stoichiometry N in experiment [3] of 5.
HPV52 L1 pentamer (complex) yielded a stoichiometry N in experiment [4] of 5.

Usually stoichiometry N stands for a count of units in the complex or per binding partner.
